Tests used:
[1] = biological target: TERM-foldon three-way connector (Methanocaldococcus jannaschii | bacteriophage T4) (UniProt P10104); assay: SDS-PAGE without heating; refolded three-way connector dialyzed against PBS, SDS loading buffer added, incubated at 25-100 °C for 5 min, 10-20% gradient SDS-PAGE; the foldon trimer resists SDS
[2] = biological target: the molecule itself; assay: negative-stain TEM; proteins refolded together at varying molar ratios, diluted in PBS to 20 μg/ml, on carbon/formvar grids, 2% uranyl acetate

Molecule “TERM-foldon three-way connector (from UniProt P10104 2-81)” has a stoichiometry N [1] of 3.

B1: γ-prefoldin (γPFD), wild type (natural protein, Methanocaldococcus jannaschii, UniProt Q58064 1-147, looked up)
chain: MVNEVIDINEAVRAYIAQIEGLRAEIGRLDATIATLRQSLATLKSLKTLGEGKTVLVPVGSIAQVEMKVEKMDKVVVSVGQNISAELEYEEALKYIEDEIKKLLTFRLVLEQAIAELYAKIEDLIAEAQQTSEEEKAEEEENEEKAE
notes: γ-prefoldin (γPFD), filamentous prefoldin-family chaperone of the hyperthermophile Methanocaldococcus jannaschii; wild type; Assembles into filaments of variable length through the β-sheets X1 and X2; also called γPFD filaments; γPFD subunits
B1: binds [2].
